Reference: US20260001928A1 (CORTERIA PHARMACEUTICALS, priority 2022, published 2026)
*1 amine or outer side, *2 acyl side, *3 side chain or, on linkers, in order; H or OH if unused. Where no end group is shown, it is not given here. Side-chain parts run from the residue outwards. [ ]: non-standard residue; d: D form. The star is where a group is joined. C18 diacid = O=C(O)CCCCCCCCCCCCCCCCC(=O)*; C16 diacid = O=C(O)CCCCCCCCCCCCCCC(=O)*; γGlu = O=C(O)[C@H](CCC(=O)[*:2])N[*:1]; NMeI = CC[C@H](C)[C@H](NC)C(=O)O; αMeL = CC(C)C[C@](C)(N)C(=O)O; AEEA = NCCOCCOCC(=O)O; Aib = CC(C)(N)C(=O)O

T1: CRF1R receptor (UniProt P34998 24-415, limits assumed)
T1 sequence (looked up): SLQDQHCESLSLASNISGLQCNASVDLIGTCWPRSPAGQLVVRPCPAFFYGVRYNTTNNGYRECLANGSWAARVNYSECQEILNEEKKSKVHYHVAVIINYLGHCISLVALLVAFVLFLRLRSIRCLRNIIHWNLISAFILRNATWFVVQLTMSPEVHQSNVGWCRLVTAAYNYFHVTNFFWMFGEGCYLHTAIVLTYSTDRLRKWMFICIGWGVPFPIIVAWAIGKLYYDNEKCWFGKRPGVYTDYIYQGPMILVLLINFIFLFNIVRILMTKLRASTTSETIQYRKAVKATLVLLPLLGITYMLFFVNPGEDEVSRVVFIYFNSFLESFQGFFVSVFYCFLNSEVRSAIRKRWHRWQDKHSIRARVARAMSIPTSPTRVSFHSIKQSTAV


Assays:
[1] = target: human corticotropin-releasing factor 2a (CRF2a receptor) (human), Q13324; experiment: cell-based or functional assay
Chain of human corticotropin-releasing factor 2a (CRF2a receptor) (human), Q13324 (Q13324 20-411): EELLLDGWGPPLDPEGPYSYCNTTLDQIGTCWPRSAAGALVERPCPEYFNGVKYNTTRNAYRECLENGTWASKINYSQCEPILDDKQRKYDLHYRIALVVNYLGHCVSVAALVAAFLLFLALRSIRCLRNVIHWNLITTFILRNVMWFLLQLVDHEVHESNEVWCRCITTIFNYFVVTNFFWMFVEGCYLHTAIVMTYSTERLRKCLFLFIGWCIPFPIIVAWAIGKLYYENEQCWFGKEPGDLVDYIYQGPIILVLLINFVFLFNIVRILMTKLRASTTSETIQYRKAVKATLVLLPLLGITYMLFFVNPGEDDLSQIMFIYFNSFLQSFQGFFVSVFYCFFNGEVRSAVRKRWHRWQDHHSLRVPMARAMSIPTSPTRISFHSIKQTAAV

[2] = target: T1, CRF1R receptor; experiment: cell-based or functional assay

EC50 [nM] (cAMP) [1]	Emax (% I) [2] [%]	EC50 [2] [nM]	Binder
0.92	-3		Ac-IVLSLDVPIK[αMeL]K([γGlu-C16 diacid])KILLEQEKQKKQREQAETNVQILAQV-NH2 [SEQ ID NO 49]
0.49	6		IVLSLDVPIK[αMeL]K([γGlu-C16 diacid])KILLEQEKQKKQREQAETN[Aib]QILAQV-NH2 (N-terminus assumed; SMILES CC[C@H](C)[C@H](N)C(=O)N[C@H](C(=O)N[C@@H](CC(C)C)C(=O)N[C@@H](CO)C(=O)N[C@@H](CC(C)C)C(=O)N[C@@H](CC(=O)O)C(=O)N[C@H](C(=O)N1CCC[C@H]1C(=O)N[C@H](C(=O)N[C@@H](CCCCN)C(=O)N[C@@](C)(CC(C)C)C(=O)N[C@@H](CCCCNC(=O)CC[C@H](NC(=O)CCCCCCCCCCCCCCC(=O)O)C(=O)O)C(=O)N[C@@H](CCCCN)C(=O)N[C@H](C(=O)N[C@@H](CC(C)C)C(=O)N[C@@H](CC(C)C)C(=O)N[C@@H](CCC(=O)O)C(=O)N[C@@H](CCC(N)=O)C(=O)N[C@@H](CCC(=O)O)C(=O)N[C@@H](CCCCN)C(=O)N[C@@H](CCC(N)=O)C(=O)N[C@@H](CCCCN)C(=O)N[C@@H](CCCCN)C(=O)N[C@@H](CCC(N)=O)C(=O)N[C@@H](CCCNC(=N)N)C(=O)N[C@@H](CCC(=O)O)C(=O)N[C@@H](CCC(N)=O)C(=O)N[C@@H](C)C(=O)N[C@@H](CCC(=O)O)C(=O)N[C@H](C(=O)N[C@@H](CC(N)=O)C(=O)NC(C)(C)C(=O)N[C@@H](CCC(N)=O)C(=O)N[C@H](C(=O)N[C@@H](CC(C)C)C(=O)N[C@@H](C)C(=O)N[C@@H](CCC(N)=O)C(=O)N[C@H](C(N)=O)C(C)C)[C@@H](C)CC)[C@@H](C)O)[C@@H](C)CC)[C@@H](C)CC)C(C)C)C(C)C) [SEQ ID NO 38]
0.3	1		Ac-IVLSLDVPIK[αMeL]K([γGlu-C16 diacid])KILLEQEKQKKQREQAETN[Aib]QILAQV-NH2 (SMILES CC[C@H](C)[C@H](NC(C)=O)C(=O)N[C@H](C(=O)N[C@@H](CC(C)C)C(=O)N[C@@H](CO)C(=O)N[C@@H](CC(C)C)C(=O)N[C@@H](CC(=O)O)C(=O)N[C@H](C(=O)N1CCC[C@H]1C(=O)N[C@H](C(=O)N[C@@H](CCCCN)C(=O)N[C@@](C)(CC(C)C)C(=O)N[C@@H](CCCCNC(=O)CC[C@H](NC(=O)CCCCCCCCCCCCCCC(=O)O)C(=O)O)C(=O)N[C@@H](CCCCN)C(=O)N[C@H](C(=O)N[C@@H](CC(C)C)C(=O)N[C@@H](CC(C)C)C(=O)N[C@@H](CCC(=O)O)C(=O)N[C@@H](CCC(N)=O)C(=O)N[C@@H](CCC(=O)O)C(=O)N[C@@H](CCCCN)C(=O)N[C@@H](CCC(N)=O)C(=O)N[C@@H](CCCCN)C(=O)N[C@@H](CCCCN)C(=O)N[C@@H](CCC(N)=O)C(=O)N[C@@H](CCCNC(=N)N)C(=O)N[C@@H](CCC(=O)O)C(=O)N[C@@H](CCC(N)=O)C(=O)N[C@@H](C)C(=O)N[C@@H](CCC(=O)O)C(=O)N[C@H](C(=O)N[C@@H](CC(N)=O)C(=O)NC(C)(C)C(=O)N[C@@H](CCC(N)=O)C(=O)N[C@H](C(=O)N[C@@H](CC(C)C)C(=O)N[C@@H](C)C(=O)N[C@@H](CCC(N)=O)C(=O)N[C@H](C(N)=O)C(C)C)[C@@H](C)CC)[C@@H](C)O)[C@@H](C)CC)[C@@H](C)CC)C(C)C)C(C)C) [SEQ ID NO 43]
0.19	4		[NMeI]VLSLD[dV]PIKLK([γGlu-C16 diacid])KILLEQEKQKKQREQAETN[Aib]QILAQV-NH2 (N-terminus assumed; SMILES CC[C@H](C)[C@H](NC)C(=O)N[C@H](C(=O)N[C@@H](CC(C)C)C(=O)N[C@@H](CO)C(=O)N[C@@H](CC(C)C)C(=O)N[C@@H](CC(=O)O)C(=O)N[C@@H](C(=O)N1CCC[C@H]1C(=O)N[C@H](C(=O)N[C@@H](CCCCN)C(=O)N[C@@H](CC(C)C)C(=O)N[C@@H](CCCCNC(=O)CC[C@H](NC(=O)CCCCCCCCCCCCCCC(=O)O)C(=O)O)C(=O)N[C@@H](CCCCN)C(=O)N[C@H](C(=O)N[C@@H](CC(C)C)C(=O)N[C@@H](CC(C)C)C(=O)N[C@@H](CCC(=O)O)C(=O)N[C@@H](CCC(N)=O)C(=O)N[C@@H](CCC(=O)O)C(=O)N[C@@H](CCCCN)C(=O)N[C@@H](CCC(N)=O)C(=O)N[C@@H](CCCCN)C(=O)N[C@@H](CCCCN)C(=O)N[C@@H](CCC(N)=O)C(=O)N[C@@H](CCCNC(=N)N)C(=O)N[C@@H](CCC(=O)O)C(=O)N[C@@H](CCC(N)=O)C(=O)N[C@@H](C)C(=O)N[C@@H](CCC(=O)O)C(=O)N[C@H](C(=O)N[C@@H](CC(N)=O)C(=O)NC(C)(C)C(=O)N[C@@H](CCC(N)=O)C(=O)N[C@H](C(=O)N[C@@H](CC(C)C)C(=O)N[C@@H](C)C(=O)N[C@@H](CCC(N)=O)C(=O)N[C@H](C(N)=O)C(C)C)[C@@H](C)CC)[C@@H](C)O)[C@@H](C)CC)[C@@H](C)CC)C(C)C)C(C)C) [SEQ ID NO 64]
17.6	-5		Ac-IVLSLDVPIKLK([AEEA-AEEA-γGlu-C18 diacid])KILLEQEKQKKQREQAETNVQILAQV-NH2 (SMILES CC[C@H](C)[C@H](NC(C)=O)C(=O)N[C@H](C(=O)N[C@@H](CC(C)C)C(=O)N[C@@H](CO)C(=O)N[C@@H](CC(C)C)C(=O)N[C@@H](CC(=O)O)C(=O)N[C@H](C(=O)N1CCC[C@H]1C(=O)N[C@H](C(=O)N[C@@H](CCCCN)C(=O)N[C@@H](CC(C)C)C(=O)N[C@@H](CCCCNC(=O)COCCOCCNC(=O)COCCOCCNC(=O)CC[C@H](NC(=O)CCCCCCCCCCCCCCCCC(=O)O)C(=O)O)C(=O)N[C@@H](CCCCN)C(=O)N[C@H](C(=O)N[C@@H](CC(C)C)C(=O)N[C@@H](CC(C)C)C(=O)N[C@@H](CCC(=O)O)C(=O)N[C@@H](CCC(N)=O)C(=O)N[C@@H](CCC(=O)O)C(=O)N[C@@H](CCCCN)C(=O)N[C@@H](CCC(N)=O)C(=O)N[C@@H](CCCCN)C(=O)N[C@@H](CCCCN)C(=O)N[C@@H](CCC(N)=O)C(=O)N[C@@H](CCCNC(=N)N)C(=O)N[C@@H](CCC(=O)O)C(=O)N[C@@H](CCC(N)=O)C(=O)N[C@@H](C)C(=O)N[C@@H](CCC(=O)O)C(=O)N[C@H](C(=O)N[C@@H](CC(N)=O)C(=O)N[C@H](C(=O)N[C@@H](CCC(N)=O)C(=O)N[C@H](C(=O)N[C@@H](CC(C)C)C(=O)N[C@@H](C)C(=O)N[C@@H](CCC(N)=O)C(=O)N[C@H](C(N)=O)C(C)C)[C@@H](C)CC)C(C)C)[C@@H](C)O)[C@@H](C)CC)[C@@H](C)CC)C(C)C)C(C)C) [SEQ ID NO 102]
0.25	0		Ac-IVLSLD[dV]PIKLK([γGlu-C16 diacid])KILLEQEKQKKQREQAETN[Aib]QILAQV-NH2 (SMILES CC[C@H](C)[C@H](NC(C)=O)C(=O)N[C@H](C(=O)N[C@@H](CC(C)C)C(=O)N[C@@H](CO)C(=O)N[C@@H](CC(C)C)C(=O)N[C@@H](CC(=O)O)C(=O)N[C@@H](C(=O)N1CCC[C@H]1C(=O)N[C@H](C(=O)N[C@@H](CCCCN)C(=O)N[C@@H](CC(C)C)C(=O)N[C@@H](CCCCNC(=O)CC[C@H](NC(=O)CCCCCCCCCCCCCCC(=O)O)C(=O)O)C(=O)N[C@@H](CCCCN)C(=O)N[C@H](C(=O)N[C@@H](CC(C)C)C(=O)N[C@@H](CC(C)C)C(=O)N[C@@H](CCC(=O)O)C(=O)N[C@@H](CCC(N)=O)C(=O)N[C@@H](CCC(=O)O)C(=O)N[C@@H](CCCCN)C(=O)N[C@@H](CCC(N)=O)C(=O)N[C@@H](CCCCN)C(=O)N[C@@H](CCCCN)C(=O)N[C@@H](CCC(N)=O)C(=O)N[C@@H](CCCNC(=N)N)C(=O)N[C@@H](CCC(=O)O)C(=O)N[C@@H](CCC(N)=O)C(=O)N[C@@H](C)C(=O)N[C@@H](CCC(=O)O)C(=O)N[C@H](C(=O)N[C@@H](CC(N)=O)C(=O)NC(C)(C)C(=O)N[C@@H](CCC(N)=O)C(=O)N[C@H](C(=O)N[C@@H](CC(C)C)C(=O)N[C@@H](C)C(=O)N[C@@H](CCC(N)=O)C(=O)N[C@H](C(N)=O)C(C)C)[C@@H](C)CC)[C@@H](C)O)[C@@H](C)CC)[C@@H](C)CC)C(C)C)C(C)C) [SEQ ID NO 40]
0.1	27	100	IVLSLD[dV]PIKLK([AEEA-AEEA-γGlu-γGlu-C16 diacid])QILLKQERQKKQREQAEKNKQILEQV-NH2 [SEQ ID NO 146]
